The supplement of paper PMC10567573

B1: TOR1AIP2 (parent)
chain: SPGHSSAGQEGEDTLRRRLLAPEA
B2: FBXO33 (parent)
chain: RLRGLLRVLRGRPGAGSRRRGRMA
B3: HESX1 (parent)
chain: HVPNPPSGISFPSVVDHPMPEERA

Variants of: B1
Assay: protein stability index of a GFP-peptide fusion (GPS, HEK-293T) (PSI 1-6); higher = more stable
Settings: c terminus: a fixed tail appended
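Also: lentivirally expressed fusions sorted by FACS into six bins by GFP to DsRed ratio, PSI derived from sequencing read proportions per bin multiplied by bin number.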

Variant | protein stability index
E23R | 4.77
E23A | 4.71
E23S | 4.46
E23N | 4.46
E23L | 3.87
E23M | 4.47
E23G | 4.67
E23D | 4.15
E23C | 4.42
E23F | 3.78
E23W | 3.98
E23Y | 3.59
E23K | 4.95
E23T | 4.53
E23P | 5.13
E23I | 4.1
E23Q | 4.59
E23H | 4.09
E23V | 4.38
P22S | 4.92
P22M | 4.93
P22I | 5.16

Variant | protein stability index
P22V | 4.8
P22C | 4.41
P22W | 4.84
P22A | 4.42
P22H | 5.27
P22K | 5.46
P22E | 4.95
P22D | 5.34
P22L | 4.59
P22R | 4.99
P22G | 5.11
P22F | 4.92
P22N | 5.76
P22T | 4.47
P22Y | 4.41
P22Q | 5.42
A24M | 2.76
A24R | 4.54
A24E | 5.36
A24S | 4.35
A24V | 4.59
A24P | 4.94

Variant | protein stability index
A24G | 5.14
A24N | 4.83
A24Y | 3.42
A24L | 3.02
A24F | 3.98
A24Q | 4.82
A24H | 4.43
A24W | 2.94
A24C | 4.27
A24T | 4.61
A24I | 4.2
A24D | 5.29
A24K | 4.82
A21V | 4.86
A21T | 5.39
A21W | 4.16
A21S | 3.08
A21N | 4.9
A21Q | 4.94
A21P | 5.09
A21R | 4.89
A21Y | 4.38

Variants of: B2
Assay: as above
Settings: c terminus: a fixed tail appended

Variant | protein stability index
G14K | 1.86
G14W | 2.76
G14V | 2.04
G14Y | 3
G14F | 1.85
G14M | 1.92
G14C | 1.84
G14A | 2.84
G14L | 1.41
P13H | 1.77
P13V | 2.68
P13S | 3.48
P13C | 2.09
P13F | 2.1
P13K | 3.26
P13D | 2.01
P13I | 1.6
P13Q | 2.34
G4L | 2.2
G4C | 1.45
G4D | 1.88
G4P | 2.23
G4E | 2.08
G4H | 1.29
G4R | 2.06

Variant | protein stability index
R22S | 1.99
R22Y | 1.7
R22C | 2.09
R22W | 1.65
R22I | 2.78
R22M | 2.25
R22H | 2.33
R22N | 1.77
R22K | 1.76
L2W | 3.3
L2K | 3.56
L2Q | 5.05
L2H | 4.34
L2P | 4.19
L2E | 3.99
L2M | 3.22
L2F | 2.1
M23T | 2.44
M23H | 2.42
M23N | 2.02
M23P | 1.58
M23V | 1.97
M23L | 2.89
R18E | 1.99
R18Q | 2.83

Variant | protein stability index
R18C | 1.8
R18V | 1.26
R18Y | 1.95
R18H | 1.59
R18I | 1.72
R18G | 1.16
R18F | 1
R18P | 1.08
R18L | 1.15
R1W | 1.69
R1N | 2.01
R1F | 1.53
R1D | 2.92
R1C | 1.2
R1S | 1.75
R1Q | 2.02
R1G | 1.84
R1L | 1.59
R1A | 1.7
A15T | 1.47
A15K | 1.25
A15F | 1.93
A15S | 1.6
A15C | 1.71
A15Q | 1.49

Variant | protein stability index
A15R | 2.46
A15D | 1.66
A15N | 1.8
A15Y | 2.17
A15L | 1.19
A15W | 1.8
A15G | 1.54
V8T | 1.81
V8D | 2.47
V8F | 2.83
V8S | 1.93
V8R | 2.54
V8C | 2.06
V8Y | 2.64
V8W | 1.87
V8K | 1.91
V8H | 2.1
V8I | 2.84
V8N | 2.01
V8P | 4.41
G16Y | 1.86
G16S | 1.5
G16I | 1.01
G16P | 2.06
G16E | 2.94

Variant | protein stability index
G16T | 2.96
G16N | 2.57
G16Q | 1.65
G16L | 1.44
G16H | 1.83
G16F | 1.79
R20C | 1.72
R20F | 1.13
R20E | 2.29
R20A | 4.73
R20V | 2.39
R20H | 1.23
R20M | 2.24
R20Q | 1.56
L6G | 4.8
L6V | 2.77
L6I | 2.18
L6A | 3.57
L6D | 5.1
L6T | 4.48
L6E | 2.75
L6C | 2.07
L6K | 2.73
L6R | 4.41
L5W | 1.85

Variant | protein stability index
L5D | 4.05
L5P | 4.32
L5M | 2.88
L5Y | 3.49
L5A | 4.21
L5V | 2.71
L5N | 4.52
L5S | 4.64
L5C | 3.17
L5E | 3.98
L5G | 4.71
L5Q | 3.78
R7Y | 2.41
R7T | 2.05
R7G | 2.86
R7I | 2.17
R7L | 2.56
R7E | 2.04
R7N | 2.35
R7S | 2.83
R7W | 1.69
G11P | 2.23
G11T | 2.23
G11I | 2.77
G11E | 1.83

Variant | protein stability index
G11N | 2.47
G11H | 1.92
G11C | 1.64
L9F | 3.09
L9K | 3.26
L9T | 4
L9Q | 3.39
L9E | 3.75
L9W | 2.83
L9V | 1.92
L9N | 3.72
L9Y | 2.73
R10A | 1.96
R10P | 2.59
R10I | 2.25
R10N | 1.72
R10C | 2.99
R10S | 1.93
R3T | 2.23
R3M | 1.54
R3Q | 2.21
R3D | 2.67
R3V | 1.02
R3K | 2.83
R19N | 1.71

Variant | protein stability index
R19W | 1.48
R19S | 1.79
R19K | 1.89
R19Q | 1.75
R19E | 1.43
R19H | 1.88
R19T | 1.75
A24D | 1.04
A24P | 3.3
A24Q | 2.74
A24W | 2.42
A24F | 2.73
A24E | 2.54
A24Y | 2.27
A24I | 1.46
A24L | 1.64
A24R | 2.63
G21R | 3.38
G21I | 2.32
G21H | 1.66
G21F | 1.58
G21C | 1.39
G21L | 1.57
G21D | 1.78
G21P | 1.69

Variant | protein stability index
S17A | 1.75
S17F | 2.58
S17K | 2.01
S17E | 2.36
S17L | 2.86
S17T | 3.32
S17G | 1.92
S17Y | 2.52
R12I | 1.06
R12G | 2.53
R12A | 3.08
R12T | 2.03
R12D | 2.31
R12Q | 2.17
R12L | 1.66
R12S | 2.19
R12W | 1.79

Variants of: B3
Assay: as above
Settings: c terminus: a fixed tail appended

Variant | protein stability index
P3I | 3.96
P3R | 2.27
P3D | 5.34
P3M | 4.21
P3Q | 4.09
P3N | 4
P3A | 3.79
P3K | 2.99
P3L | 3.88
P3H | 4.13
P3F | 3.85
P3G | 4.01
P3C | 3.54
P3E | 5.25
H1G | 5.41
H1C | 4.48
H1W | 4.33
H1Q | 5.07
H1Y | 2.25
H1M | 5.08
H1L | 4.51
H1S | 5.2
H1D | 5.46
H1F | 3.54
H1P | 5.28
H1A | 5.22

Variant | protein stability index
H1K | 4.82
H1V | 5.32
H1I | 4.77
H1T | 5.62
H1E | 5.06
H1N | 5.29
H1R | 4.62
V2K | 5
V2M | 5.26
V2S | 5.06
V2R | 4.84
V2C | 4.32
V2I | 4.37
V2T | 4.92
V2L | 5
V2D | 5.52
V2N | 5.14
V2E | 5.7
V2W | 4.53
V2Q | 5.26
V2A | 4.97
V2H | 4.86
V2Y | 5.18
V2G | 5.17
V2F | 4.78
